T1: mouse RANK extracellular domain (mouse, UniProt O35305 31-214)
T1 construct: RANK, mouse, extracellular domain (plasmid pET28a-mRANK); also called mRANK; mRANK ectodomain; source: plasmid pET28a-mRANK
T1 sequence (looked up): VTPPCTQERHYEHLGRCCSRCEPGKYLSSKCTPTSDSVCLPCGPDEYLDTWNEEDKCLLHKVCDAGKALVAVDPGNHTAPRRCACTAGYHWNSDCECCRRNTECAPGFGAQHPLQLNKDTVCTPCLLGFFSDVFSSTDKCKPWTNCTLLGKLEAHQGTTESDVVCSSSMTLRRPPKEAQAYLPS

T2: human RANKL ectodomain (residues 158-317) Arg223Ala (human, UniProt O14788 158-317, Arg223Ala)
T2 sequence: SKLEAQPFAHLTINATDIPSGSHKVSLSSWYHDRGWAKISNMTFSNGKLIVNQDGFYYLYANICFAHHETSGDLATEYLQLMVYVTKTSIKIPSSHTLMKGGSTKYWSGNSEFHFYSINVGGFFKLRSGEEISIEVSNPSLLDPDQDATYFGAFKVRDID

T3: human RANKL ectodomain (residues 158-317) Arg223Ala plus Asp300Ala (human, UniProt O14788 158-317, Arg223Ala | Asp300Ala)
T3 sequence: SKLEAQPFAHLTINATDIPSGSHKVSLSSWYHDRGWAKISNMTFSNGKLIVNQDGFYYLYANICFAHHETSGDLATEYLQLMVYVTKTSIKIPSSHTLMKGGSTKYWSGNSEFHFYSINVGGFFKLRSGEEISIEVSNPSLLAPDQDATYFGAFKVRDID

T4: human RANKL ectodomain (residues 158-317) Asp300Ala (human, UniProt O14788 158-317, Asp300Ala)
T4 sequence: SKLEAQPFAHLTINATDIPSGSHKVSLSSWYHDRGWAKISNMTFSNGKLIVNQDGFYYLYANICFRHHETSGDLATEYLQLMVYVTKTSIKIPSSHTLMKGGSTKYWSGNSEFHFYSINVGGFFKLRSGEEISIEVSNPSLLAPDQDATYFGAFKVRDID


What was measured:
[1] = molecular target: T1, mouse RANK extracellular domain; assay: SPR; Biacore 3000; NTA sensor chip charged with 0.3 M NiSO4, mRANK (50 nM, 15 ul) loaded; hRANKL or mutants injected at 0, 0.47, 0.94, 1.88, 3.75, 7.5, 15 and 30 nM; BIAevaluation 4.1; settings: both partners purified
[2] = molecular target: T2, human RANKL ectodomain (residues …); assay: SPR
[3] = molecular target: T3, human RANKL ectodomain (residues …); assay: SPR
[4] = molecular target: T4, human RANKL ectodomain (residues …); assay: SPR
[5] = molecular target: the molecule itself; assay: crystal structure; hRANKL and mRANK mixed 1:1 in 0.1 M Tris pH 7.0, 10 mg/mL; sitting drop at 294 K, microseeded with crushed mRANKL-mRANK crystals; 2.8 Å, space group P63
[6] = molecular target: the molecule itself; assay: cross-linking; DSS to protein 0:1, 5:1, 10:1 and 20:1, in PBS pH 7.3, on ice 1 hour, stopped with 50 mM Tris pH 7.5; SDS-PAGE

Row | Binder | Kd [1] [nM] | fold decrease in affinity against wild-type hRANKL [1] [fold] | also measured
1 | mouse RANKL (ligand, RANKL, mouse; the text names the ectodomain in general as residues 161-316 of mRANKL; also called mRANKL) KPEAQPFAHLTINAASIPSGSHKVTLSSWYHDRGWAKISNMTLSNGKLRVNQDGFYYLYANICFRHHETSGSVPTDYLQLMVYVVKTSIKIPSSHNLMKGGSTKNWSGNSEFHFYSINVGGFFKLRAGEEISIQVSNPSLLDPDQDATYFGAFKVQDID | 0.068 | – | –
2 | mouse RANK extracellular domain (receptor) VTPPCTQERHYEHLGRCCSRCEPGKYLSSKCTPTSDSVCLPCGPDEYLDTWNEEDKCLLHKVCDAGKALVAVDPGNHTAPRRCACTAGYHWNSDCECCRRNTECAPGFGAQHPLQLNKDTVCTPCLLGFFSDVFSSTDKCKPWTNCTLLGKLEAHQGTTESDVVCSSSMTLRRPPKEAQAYLPS | – | – | Kd [2]: 10.7 nM; Kd [3]: 39.4 nM; Kd [4]: 2.15 nM
3 | human RANKL ectodomain (residues 158-317), wild type (ligand, UniProt O14788 158-317, looked up, RANKL, human, ectodomain, residues 158-317 (plasmid pGEX-6P-hRANKL); Homotrimer in the crystal structure; also called hRANKL; wild-type hRANKL; source: E. coli BL21, purified (glutathione-Sepharose, PreScission cleavage, Superdex 200); not shown: GST, N-terminal, cleaved) SKLEAQPFAHLTINATDIPSGSHKVSLSSWYHDRGWAKISNMTFSNGKLIVNQDGFYYLYANICFRHHETSGDLATEYLQLMVYVTKTSIKIPSSHTLMKGGSTKYWSGNSEFHFYSINVGGFFKLRSGEEISIEVSNPSLLDPDQDATYFGAFKVRDID | 0.156 | – | stoichiometry N [5]: 3
4 | human RANKL ectodomain (residues 158-317) Asp300Ala (ligand, UniProt O14788 158-317, looked up, RANKL, human, ectodomain, residues 158-317, with Asp300Ala (mutant of pGEX-6P-hRANKL); also called 300 M; source: E. coli BL21, purified (glutathione-Sepharose, PreScission cleavage, Superdex 200); not shown: GST, N-terminal, cleaved) SKLEAQPFAHLTINATDIPSGSHKVSLSSWYHDRGWAKISNMTFSNGKLIVNQDGFYYLYANICFRHHETSGDLATEYLQLMVYVTKTSIKIPSSHTLMKGGSTKYWSGNSEFHFYSINVGGFFKLRSGEEISIEVSNPSLLAPDQDATYFGAFKVRDID | – | 70 | –
5 | human RANKL ectodomain (residues 158-317) Arg223Ala plus Asp300Ala (ligand, UniProt O14788 158-317, looked up, RANKL, human, ectodomain, residues 158-317, with Arg223Ala and Asp300Ala (mutant of pGEX-6P-hRANKL); Trimeric by chemical cross-linking; also called hRANKL double-site mutant; source: E. coli BL21, purified (glutathione-Sepharose, PreScission cleavage, Superdex 200); not shown: GST, N-terminal, cleaved) SKLEAQPFAHLTINATDIPSGSHKVSLSSWYHDRGWAKISNMTFSNGKLIVNQDGFYYLYANICFAHHETSGDLATEYLQLMVYVTKTSIKIPSSHTLMKGGSTKYWSGNSEFHFYSINVGGFFKLRSGEEISIEVSNPSLLAPDQDATYFGAFKVRDID | – | 260 | stoichiometry N [6]: 3
6 | human RANKL ectodomain (residues 158-317) Arg223Ala (ligand, UniProt O14788 158-317, looked up, RANKL, human, ectodomain, residues 158-317, with Arg223Ala (mutant of pGEX-6P-hRANKL); source: E. coli BL21, purified (glutathione-Sepharose, PreScission cleavage, Superdex 200); not shown: GST, N-terminal, cleaved) SKLEAQPFAHLTINATDIPSGSHKVSLSSWYHDRGWAKISNMTFSNGKLIVNQDGFYYLYANICFAHHETSGDLATEYLQLMVYVTKTSIKIPSSHTLMKGGSTKYWSGNSEFHFYSINVGGFFKLRSGEEISIEVSNPSLLDPDQDATYFGAFKVRDID | – | 20 | –
